Measurements taken from the RNAGym collection of RNA variant scans (doi:10.1101/gr.219683.116).

B1: mRNA-splicing (parent)
chain: AGUUGCUGCUGGGAGCUCCAGCACAGUGAAAUGGACAGAAGGGCAGAGCAA

Variants of: B1
Assay: exon inclusion enrichment index; higher = more inclusion; WT1 exon 5 minigene, HEK293

Going from AGUUAUAUAUGGGAGCUUUAGCACAGUGAAAUGGACAGAAGGGCAGAGCAA to AGUUAUAUAUGGGAGCUCAAGCACAGUGAAAUGGACAGAAGGGCAGAGCAA, the “exon inclusion enrichment index” value rises from 0.00085 to 0.0415.

Compared with AGUUAUAUAUGGGAGCUCACGCACAGUGAAAUGGACAGAAGGGCAGAGCAA, AGUUAUAUAUGGGAGCUCAGGCACAGUGAAAUGGACAGAAGGGCAGAGCAA is lower in “exon inclusion enrichment index” value: 0.0154 for the first, 0.00271 for the second.

First: AGUUAUAUAUGGGAGCUCAUGCACAGUGAAAUGGACAGAAGGGCAGAGCAA
Second: AGUUAUAUAUGGGAGCUCGAGCACAGUGAAAUGGACAGAAGGGCAGAGCAA
The “exon inclusion enrichment index” value of the first is lower: 0.0348 for the first, 0.0674 for the second.

First: AGUUAUAUAUGGGAGCUCGCGCACAGUGAAAUGGACAGAAGGGCAGAGCAA
Second: AGUUAUAUAUGGGAGCUCGGGCACAGUGAAAUGGACAGAAGGGCAGAGCAA
The “exon inclusion enrichment index” value of the first is higher: 0.0894 for the first, 0.0128 for the second.

Compared with AGUUAUAUAUGGGAGCUCGUGCACAGUGAAAUGGACAGAAGGGCAGAGCAA, AGUUAUAUAUGGGAGCUCUAGCACAGUGAAAUGGACAGAAGGGCAGAGCAA is lower in “exon inclusion enrichment index” value: 0.0389 for the first, 0.00395 for the second.

Going from AGUUAUAUAUGGGAGCUCUCGCACAGUGAAAUGGACAGAAGGGCAGAGCAA to AGUUAUAUAUGGGAGCUCUGGCACAGUGAAAUGGACAGAAGGGCAGAGCAA, the “exon inclusion enrichment index” value falls from 0.078 to 0.00852.

Going from AGUUAUAUAUGGGAGCUCUUGCACAGUGAAAUGGACAGAAGGGCAGAGCAA to AGUUAUAUAUGGGAGCUCCAGAACAGUGAAAUGGACAGAAGGGCAGAGCAA, the “exon inclusion enrichment index” value rises from 0.00982 to 0.0781.

Going from AGUUAUAUAUGGGAGCUCCAGACCAGUGAAAUGGACAGAAGGGCAGAGCAA to AGUUAUAUAUGGGAGCUCCAGAGCAGUGAAAUGGACAGAAGGGCAGAGCAA, the “exon inclusion enrichment index” value falls from 0.189 to 0.0409.

First: AGUUAUAUAUGGGAGCUCCAGAUCAGUGAAAUGGACAGAAGGGCAGAGCAA
Second: AGUUAUAUAUGGGAGCUCCAGGACAGUGAAAUGGACAGAAGGGCAGAGCAA
The “exon inclusion enrichment index” value of the first is lower: 0.0397 for the first, 0.0616 for the second.

First: AGUUAUAUAUGGGAGCUCCAGGCCAGUGAAAUGGACAGAAGGGCAGAGCAA
Second: AGUUAUAUAUGGGAGCUCCAGGGCAGUGAAAUGGACAGAAGGGCAGAGCAA
The “exon inclusion enrichment index” value of the first is higher: 0.0334 for the first, 0.0166 for the second.

Compared with AGUUAUAUAUGGGAGCUCCAGGUCAGUGAAAUGGACAGAAGGGCAGAGCAA, AGUUAUAUAUGGGAGCUCCAGUACAGUGAAAUGGACAGAAGGGCAGAGCAA is higher in “exon inclusion enrichment index” value: 0.00095 for the first, 0.0424 for the second.

Going from AGUUAUAUAUGGGAGCUCCAGUCCAGUGAAAUGGACAGAAGGGCAGAGCAA to AGUUAUAUAUGGGAGCUCCAGUGCAGUGAAAUGGACAGAAGGGCAGAGCAA, the “exon inclusion enrichment index” value rises from 0.0341 to 0.0485.

Going from AGUUAUAUAUGGGAGCUCCAGUUCAGUGAAAUGGACAGAAGGGCAGAGCAA to AGUUAUAUAUGGGAGCUCCAGCAAAGUGAAAUGGACAGAAGGGCAGAGCAA, the “exon inclusion enrichment index” value rises from 0.0179 to 0.0667.

First: AGUUAUAUAUGGGAGCUCCAGCAACGUGAAAUGGACAGAAGGGCAGAGCAA
Second: AGUUAUAUAUGGGAGCUCCAGCAAGGUGAAAUGGACAGAAGGGCAGAGCAA
The “exon inclusion enrichment index” value of the first is higher: 0.405 for the first, 0.0412 for the second.

First: AGUUAUAUAUGGGAGCUCCAGCAAUGUGAAAUGGACAGAAGGGCAGAGCAA
Second: AGUUAUAUAUGGGAGCUCCAGCAGAGUGAAAUGGACAGAAGGGCAGAGCAA
The “exon inclusion enrichment index” value of the first is lower: 0.0699 for the first, 0.0851 for the second.

Compared with AGUUAUAUAUGGGAGCUCCAGCAGCGUGAAAUGGACAGAAGGGCAGAGCAA, AGUUAUAUAUGGGAGCUCCAGCAGGGUGAAAUGGACAGAAGGGCAGAGCAA is lower in “exon inclusion enrichment index” value: 0.392 for the first, 0.0168 for the second.

Compared with AGUUAUAUAUGGGAGCUCCAGCAGUGUGAAAUGGACAGAAGGGCAGAGCAA, AGUUAUAUAUGGGAGCUCCAGCAUAGUGAAAUGGACAGAAGGGCAGAGCAA is lower in “exon inclusion enrichment index” value: 0.0695 for the first, 0.00831 for the second.

Compared with AGUUAUAUAUGGGAGCUCCAGCAUCGUGAAAUGGACAGAAGGGCAGAGCAA, AGUUAUAUAUGGGAGCUCCAGCAUGGUGAAAUGGACAGAAGGGCAGAGCAA is lower in “exon inclusion enrichment index” value: 0.546 for the first, 0.165 for the second.

First: AGUUAUAUAUGGGAGCUCCAGCAUUGUGAAAUGGACAGAAGGGCAGAGCAA
Second: AGUUAUAUAUGGGAGCUCCAGCACAGUGAAAUGGAAAGAAGGGCAGAGCAA
The “exon inclusion enrichment index” value of the first is higher: 0.0538 for the first, 0.0298 for the second.

First: AGUUAUAUAUGGGAGCUCCAGCACAGUGAAAUGGAACGAAGGGCAGAGCAA
Second: AGUUAUAUAUGGGAGCUCCAGCACAGUGAAAUGGAAGGAAGGGCAGAGCAA
The “exon inclusion enrichment index” value of the first is higher: 0.0847 for the first, 0.0248 for the second.

Going from AGUUAUAUAUGGGAGCUCCAGCACAGUGAAAUGGAAUGAAGGGCAGAGCAA to AGUUAUAUAUGGGAGCUCCAGCACAGUGAAAUGGAGAGAAGGGCAGAGCAA, the “exon inclusion enrichment index” value rises from 0.0158 to 0.0434.

First: AGUUAUAUAUGGGAGCUCCAGCACAGUGAAAUGGAGCGAAGGGCAGAGCAA
Second: AGUUAUAUAUGGGAGCUCCAGCACAGUGAAAUGGAGGGAAGGGCAGAGCAA
The “exon inclusion enrichment index” value of the first is higher: 0.0098 for the first, 0.00777 for the second.

Going from AGUUAUAUAUGGGAGCUCCAGCACAGUGAAAUGGAGUGAAGGGCAGAGCAA to AGUUAUAUAUGGGAGCUCCAGCACAGUGAAAUGGAUAGAAGGGCAGAGCAA, the “exon inclusion enrichment index” value falls from 0.0196 to 0.00462.

First: AGUUAUAUAUGGGAGCUCCAGCACAGUGAAAUGGAUCGAAGGGCAGAGCAA
Second: AGUUAUAUAUGGGAGCUCCAGCACAGUGAAAUGGAUGGAAGGGCAGAGCAA
The “exon inclusion enrichment index” value of the first is lower: 0.0296 for the first, 0.0518 for the second.

Compared with AGUUAUAUAUGGGAGCUCCAGCACAGUGAAAUGGAUUGAAGGGCAGAGCAA, AGUUAUAUAUGGGAGCUCCAGCACAGUGAAAUGGACAGAAGGGAAGAGCAA is higher in “exon inclusion enrichment index” value: 0.0384 for the first, 0.286 for the second.

In the case of AGUUAUAUAUGGGAGCUCCAGCACAGUGAAAUGGACAGAAGGGACGAGCAA, the “exon inclusion enrichment index” value is reported as 0.248.
